Experiment [1] has as its target MukF FN2 (E. coli). Put plainly: SEC-MALS; Superose 6 10/300 GL or Superose 12 10/300; 50 mM HEPES pH 7.5, 100 mM NaCl, 1 mM DTT, 1 mM EDTA; 20 °C; mixtures at stated monomer:dimer molar ratios; some runs with 1 mM ATP.
The target of the next experiment is MukF FC2 (E. coli). The conditions noted are these: scale: % of the maximal ATPase obtained with MukF.
The target of experiment [2] is MukF FN2 (E. coli).
Experiment [3] deals with fluorescently labelled FN2, FN10, FN3 and FC2 (E. coli). Put plainly: fluorescence correlation spectroscopy (FCS) + fluorescence polarisation; range of Kds told for the four Cy5-labelled MukF fragments together (FN2, FN10 by FCS; FN3, FC2 by FPA); MukB titrated. In general terms: Polarisation of emitted light reports the rotation of a fluorescent probe.

B1: MukF FN2 (domain or fragment)
chain: MSEFSQTVPELVAWARKNDFSISLPVDRLSFLLAVATLNGERLDGEMSEGELVDAFRHVSDAFEQTSETIGVRANNAINDMVRQRLLNRFTSEQAEGNAIYRLTPLGIGITDYYIRQREFSTLRLSMQLSIVAGELKRAADAAEEGGDEFHWHRNVYAPLKYSVAEIFDSIDLTQRLMDEQQQQVKDDIAQLLNKDWRAAISSCELLLSETSGTLRELQDTLEAAGDKLQANLLRIQDATMTHDDLHFVDRLVFDLQSKLDRIISWGQQSIDLWIGYDRHVHKFIRT
modifications: not checked
For the molecule B1, in the experiment with MukF FN2 (E. coli) [1], the stoichiometry N – broadly, the number of molecules, sites or subunits per partner or assembly – is 2.

B2: MukB (natural protein)
chain: MIERGKFRSLTLINWNGFFARTFDLDELVTTLSGGNGAGKSTTMAAFVTALIPDLTLLHFRNTTEAGATSGSRDKGLHGKLKAGVCYSMLDTINSRHQRVVVGVRLQQVAGRDRKVDIKPFAIQGLPMSVQPTQLVTETLNERQARVLPLNELKDKLEAMEGVQFKQFNSITDYHSLMFDLGIIARRLRSASDRSKFYRLIEASLYGGISSAITRSLRDYLLPENSGVRKAFQDMEAALRENRMTLEAIRVTQSDRDLFKHLISEATNYVAADYMRHANERRVHLDKALEFRRELHTSRQQLAAEQYKHVDMARELAEHNGAEGDLEADYQAASDHLNLVQTALRQQEKIERYEADLDELQIRLEEQNEVVAEAIERQQENEARAEAAELEVDELKSQLADYQQALDVQQTRAIQYNQAIAALNRAKELCHLPDLTADCAAEWLETFQAKELEATEKMLSLEQKMSMAQTAHSQFEQAYQLVVAINGPLARNEAWDVARELLREGVDQRHLAEQVQPLRMRLSELEQRLREQQEAERLLADFCKRQGKNFDIDELEALHQELEARIASLSDSVSNAREERMALRQEQEQLQSRIQSLMQRAPVWLAAQNSLNQLSEQCGEEFTSSQDVTEYLQQLLEREREAIVERDEVGARKNAVDEEIERLSQPGGSEDQRLNALAERFGGVLLSEIYDDVSLEDAPYFSALYGPSRHAIVVPDLSQVTEHLEGLTDCPEDLYLIEGDPQSFDDSVFSVDELEKAVVVKIADRQWRYSRFPEVPLFGRAARESRIESLHAEREVLSERFATLSFDVQKTQRLHQAFSRFIGSHLAVAFESDPEAEIRQLNSRRVELERALSNHENDNQQQRIQFEQAKEGVTALNRILPRLNLLADDSLADRVDEIRERLDEAQEAARFVQQFGNQLAKLEPIVSVLQSDPEQFEQLKEDYAYSQQMQRDARQQAFALTEVVQRRAHFSYSDSAEMLSGNSDLNEKLRERLEQAEAERTRAREALRGHAAQLSQYNQVLASLKSSYDTKKELLNDLQRELQDIGVRADSGAEERARIRRDELHAQLSNNRSRRNQLEKALTFCEAEMDNLTRKLRKLERDYFEMREQVVTAKAGWCAVMRMVKDNGVERRLHRRELAYLSADDLRSMSDKALGALRLAVADNEHLRDVLRMSEDPKRPERKIQFFVAVYQHLRERIRQDIIRTDDPVEAIEQMEIELSRLTEELTSREQKLAISSRSVANIIRKTIQREQNRIRMLNQGLQNVSFGQVNSVRLNVNVRETHAMLLDVLSEQHEQHQDLFNSNRLTFSEALAKLYQRLNPQIDMGQRTPQTIGEELLDYRNYLEMEVEVNRGSDGWLRAESGALSTGEAIGTGMSILVMVVQSWEDESRRLRGKDISPCRLLFLDEAARLDARSIATLFELCERLQMQLIIAAPENISPEKGTTYKLVRKVFQNTEHVHVVGLRGFAPQLPETLPGTDEAPSQAS
Molecule B2 showed a MukB ATPase (steady state, phosphate release) with saturating FC2 at a 2.5-fold molar excess, against MukF in the experiment with MukF FC2 (E. coli) of 60. The molecule also yielded a MukB ATPase (steady state, phosphate release) with saturating FN2 at a 2.5-fold molar excess, against MukF (% of maximum ATPase) with MukF FN2 (E. coli) [2] of 33. In addition, in experiment [3], the Kd (usually the constant that tells how readily two partners part at equilibrium) lay in the range of 9 to 26 nM.

The values above are taken from publication PMC5812716.
